From article PMC9616769, “Deconstruction of Neurotrypsin Reveals a Multi-factorially Regulated Activity Affecting Myotube Formation and Neuronal Excitability” (Molecular Neurobiology, 2022)

Biological target: the molecule itself
Experiment: SEC-MALS; Protein KW.802.5 (Shodex) column, 1 mL/min, 50 mM TRIS/HCl, 500 mM NaCl, pH 8.0; protein conjugate analysis

B1: AGR-124 (human agrin y4z19, FS9-LG3 domains, Ala893-Pro2068) (domain or fragment)
chain: not shown
modifications: glycans (limited N-linked, presumably O-linked) contributing around 10% of the total mass
notes: human agrin y4z19, 9th FS domain to the last LG domain (FS9-LG3), Ala893-Pro2068; codon-optimized synthetic gene; Tag removed with TEV protease; also called agrin-like AGR-124 substrate; source: SFM-HEK293 suspension cells, transient transfection; purified from the medium (Ni-IMAC, heparin, SEC); not shown: 6xHis, N-terminal, cleaved
binding result: binds
